How the values were obtained:
[1] = target: T1, human ROR-1 endogenously expressed on JeKo-1 and MDA-MB-468 cells (human, UniProt Q01973 30-937); assay: cell-based or functional assay
[2] = target: T2, Hu/Cy/Rh ROR1 - His (human/cynomolgus/rhesus (Hu/Cy/Rh), UniProt Q01973 30-403, limits assumed); assay: SPR, binding to purified His-tagged protein
T2 construct: Purified His-tagged protein; also called human/cyno/rhesus ROR-1; not shown: His tag

[3] = target: T1, human ROR-1 endogenously expressed on …; assay: flow cytometry, antibody titration on ROR-1 positive JeKo-1 cells, secondary antibody staining, Net MFI [left panel]
[4] = target: T1, human ROR-1 endogenously expressed on …; assay: flow cytometry, antibody titration on ROR-1 positive JeKo-1 cells, secondary antibody staining, Net MFI [right panel]
Source text: FIG. 27 illustrates a measurement of cell binding saturation data for the anti-ROR-1 antibodies generated by the methods described herein. […] Cells were washed, stained with secondary antibody and cell binding saturation was detected by flow cytometry and reported as mean fluorescent intensity (MFI).
A cell binding saturation assay was developed to evaluate how well the anti_ROR-1 antibodies developed in Example 28 bound to endogenously expressed extracellular ROR-1 protein on cell lines. […] Briefly, two ROR-1 positive cell lines, JeKo-1 and MDA-MB-468, were incubated in a titration series concentration of each antibody construct. Cells were then washed and subjected to secondary antibody staining and detection by flow cytometry. Mean fluorescence (MFI) was determined by analysis on cytometer software. […] (See FIG. 27).

[5] = target: T1, human ROR-1 endogenously expressed on …; assay: cellular binning by flow cytometry on MDA-MB-468 cells; antibody titrated, stained with labelled secondary antibody, % Top MFI [29C left panel]
Experimental: (§1) Next, the anti-ROR-1 antibodies were fluorescently labeled with a secondary antibody.
(§2) In Step 2, a fluorescently labeled secondary antibody recognizing the novel antibodies was incubated with the samples.

[6] = target: T1, human ROR-1 endogenously expressed on …; assay: cellular binning by flow cytometry on MDA-MB-468 cells; antibody titrated, stained with labelled secondary antibody, % Top MFI [29D left panel]
Experimental: as §1, §2

[7] = target: T1, human ROR-1 endogenously expressed on …; assay: cellular binning by flow cytometry on MDA-MB-468 cells; ATX-P-875 titrated first, then a saturating dose of the competitor 4A5-PE [29D left panel]
Experimental: as §1, §2

[8] = target: T1, human ROR-1 endogenously expressed on …; assay: cellular binning by flow cytometry on MDA-MB-468 cells; antibody titrated, stained with labelled secondary antibody, % Top MFI [29C middle panel]
Experimental: as §1, §2

[9] = target: T1, human ROR-1 endogenously expressed on …; assay: cellular binning by flow cytometry on MDA-MB-468 cells; antibody titrated, stained with labelled secondary antibody, % Top MFI [29D middle panel]
Experimental: as §1, §2

[10] = target: T1, human ROR-1 endogenously expressed on …; assay: cellular binning by flow cytometry on MDA-MB-468 cells; ATX-P-885 titrated first, then a saturating dose of the competitor Dy650-UC961; partial inhibition [29C middle panel]
Experimental: as §1, §2

[11] = target: T2, Hu/Cy/Rh ROR1 - His; assay: SPR (Carterra); cell 'Kinetics (KD)' of 4A5 in the row and the column heads of the binning table; no unit is printed on the sheet, the four other KD cells equal the KD (M) values of Table 2 for Hu/Cy/Rh ROR1 - His

B1: UC961 (ATX-P-453) (antibody, V domains shown)
VH: QVQLQESGPGLVKPSQTLSLTCTVSGYAFTAYNIHWVRQAPGQGLEWMGSFDPYDGGSSYNQKFKDRLTISKDTSKNQVVLTMTNMDPVDTATYYCARGWYYFDYWGHGTLVTVSS
VL: DIVMTQTPLSLPVTPGEPASISCRASKSISKYLAWYQQKPGQAPRLLIYSGSTLQSGIPPRFSGSGYGTDFTLTINNIESEDAAYYFCQQHDESPYTFGEGTKVEIK
- percent receptor internalization relative to time zero (flow cytometry of antibody remaining on the surface, JeKo-1 and MDA-MB-468) [1]: ≥ 75%
- Kd [2]: 4.69 nM
- koff [2]: 0.00591 s⁻¹
- kon [2]: 1.26e+06 M⁻¹ s⁻¹
- EC50 (read off the curve) [3]: ~0.02 nM
- EC50 (read off the curve) [4]: ~0.1 nM

B2: ATX-P-875 (antibody, human IgG1, kappa, V domains shown)
VH: not shown
VL: DIQMTQSPSSLSASVGDRVTITCRASQSISSYLNWYQQKPGKAPKLLIYAASSLQSGVPSRFSGSGSGTDFTLTISSLQPEDFATYYCQQYDNLPITFGQGTRLEIKR
notes: also called mAb A
- EC50 (read off the curve) [5]: ~0.9 nM
- EC50 (read off the curve) [6]: ~0.6 nM
- IC50 (read off the curve) [7]: ~0.7 nM

B3: ATX-P-885 (antibody, human IgG1, kappa, V domains shown)
VH: QVQLQQWGAGLLKPSETLSLTCAVYGGSFSGYYWSWIRQPPGKGLEWIGEINHSGSTNYNPSLKSRVTISVDTSKNQFSLKLSSVTAADTAVYYCAREGVYEDYWGQGTLVTVSS
VL: EIVLTQSPATLSLSPGERATLSCRASQSVSNYLAWYQQKPGQAPRLLIYDAYNRATGIPARFSGSGSGTDFTLTISSLEPEDFAVYYCQQRSNWPLTFGQGTRLEIKR
notes: also called mAb B
- EC50 (read off the curve) [4]: ~0.3 nM
- EC50 (read off the curve) [8]: ~3 nM
- EC50 (read off the curve) [9]: ~2 nM
- IC50 (read off the curve) [10]: ~3 nM

B4: 4A5 (antibody, V domains shown)
VH: EVKLVESGGGLVKPGGSLKLSCAASGFTFSSYAMSWVRQIPEKRLEWVASISRGGTTYYPDSVKGRFTISRDNVRNILYLQMSSLRSEDTAMYYCGRYDYDGYYAMDYWGQGTSVTVSS
VL: DIKMTQSPSSMYASLGERVTITCKASPDINSYLSWFQQKPGKSPKTLIYRANRLVDGVPSRFSGGGSGQDYSLTINSLEYEDMGIYYCLQYDEFPYTFGGGTKLEMK
- Kd [11]: 2.81 nM

Reference: patent publication US20230123041A1 (IMMUNOME, published 2023)
